Results from article PMC10336096.

Experiments:
[1] = biological target: wild-type CXCL8^1–72 (human); test: native MS; nanoESI-MS under non-denaturing conditions, 200 mM ammonium acetate; 5‒20 μM protein (methods; 2–7 μM in the results for the wild type); monomer to dimer
[2] = biological target: trapped dimer (CXCL8^R26C) (human); test: as above
[3] = biological target: CXC chemokine receptor 1 (CXCR1) (human) (UniProt P25024)
CXC chemokine receptor 1 (CXCR1) (human), sequence (P25024 whole entry): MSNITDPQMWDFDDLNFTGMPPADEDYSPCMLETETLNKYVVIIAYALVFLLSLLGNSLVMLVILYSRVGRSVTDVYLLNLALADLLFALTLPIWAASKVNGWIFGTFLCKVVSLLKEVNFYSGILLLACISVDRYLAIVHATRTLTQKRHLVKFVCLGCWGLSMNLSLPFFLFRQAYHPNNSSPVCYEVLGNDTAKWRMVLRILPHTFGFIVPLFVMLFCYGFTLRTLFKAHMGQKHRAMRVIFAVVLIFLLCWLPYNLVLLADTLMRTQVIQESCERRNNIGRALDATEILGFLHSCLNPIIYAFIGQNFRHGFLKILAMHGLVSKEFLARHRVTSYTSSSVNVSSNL

stoichiometry N [1] | stoichiometry N [2] | NanoBiT Gi1 dissociation assay in HEK293A cells; fold higher concentration needed than the trapped monomer (CXCL8^1–65) to elicit a response from CXCR1 [3] | NanoBiT Gi1 dissociation assay in HEK293A cells; fold higher concentration needed than the wild-type CXCL8 to elicit a response from CXCR1 [3] | Substance
2 | – | – | – | wild-type CXCL8^1–72 (ligand)
– | 2 | 32 fold | 85 fold | trapped dimer (CXCL8^R26C) (ligand)
